Positions count from the first letter of the chain named.
T1: VEGFR-3-Fc (UniProt P35916 25-328)
T1 construct: domain: first three Ig domains; conditioned supernatant of 293T cells; also called VEGFR-3-Fc fusion protein; not shown: Fc fragment of the pIg vector
T1 sequence (looked up): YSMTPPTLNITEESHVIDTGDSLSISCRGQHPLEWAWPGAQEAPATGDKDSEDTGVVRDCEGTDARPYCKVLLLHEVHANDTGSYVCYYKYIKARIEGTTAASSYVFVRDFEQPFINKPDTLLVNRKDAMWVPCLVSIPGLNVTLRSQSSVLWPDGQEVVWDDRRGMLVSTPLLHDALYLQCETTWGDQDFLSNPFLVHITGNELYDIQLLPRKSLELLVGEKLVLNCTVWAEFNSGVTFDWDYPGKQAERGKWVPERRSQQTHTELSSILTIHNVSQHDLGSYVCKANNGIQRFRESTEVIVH

B1: 31-6 (ligand)
chain: GQNHHEVVKSIDNEWRKTQCMPIETLVDIFQEYPDEIEYIFKPSCVPLMRCGGCCNDEGLECMNTSTSYLSKTLFEIKPHQGQHIGEMSFANHTSCRCMSKLD
B2: 23-1 (ligand)
chain: AHYNTEILKSIDNEWRKTQCMPREVCIDVGKEYPDEIEYIFKPPCVSVYRCGGCCNDEGLECVPTEESNITMQIMRIKPHQGQHIGEMSFLQHNKCECRPKKD
B3: 13-14 (ligand)
chain: GQNHHEVVKFMDVYQRSYCHPIETLVDIFQEYPDEIEYIFKPPCVSVYRCGGCCNDEGLECMNTSTSYLSKTLFEITVPLSQGPKPVTISFANHTSCRCMSKLD
B4: 13-4 (ligand)
chain: GQNHHEVVKFMDVYQRSYCHPIETLVDIFQEYPDEIEYIFKPPCVSVYRCGGCCNSEGLQCMNTSTSYLSKTLFEIKPHQGQHIGEMSFLQHNKCECRPKKD
B5: 31-1 (ligand)
chain: GQNHHEVVKSIDNEWRKTQCMPIETLVDIFQEYPDEIEYIFKPSCVPLMRCGGCCNDEGLECVPTEESNITMQIMRIKPHQGQHIGEMSFLQHNKCECRPKKD
B6: 24-5 (ligand)
chain: AHYNTEILKSIDNEWRKTQCMPREVCIDVGKEFGVATNTFFKPSCVPLMRCGGCCNDEGLECVPTEESNITMQIMRIKPHQGQHIGEMSFANHTSCRCMSKLD
B7: 24-3 (ligand)
chain: B6 chain with D57S, E61Q, A91L, N92Q, T94N, S95K, R97E, M99R, S100P, L102K
B8: 21-5 (ligand)
chain: B6 chain with F33Y, G34P, V35D, A36E, T37I, N38E, T39Y, F40I
B9: 21-7 (ligand)
chain: B6 chain with F33Y, G34P, V35D, A36E, T37I, N38E, T39Y, F40I, D57S, E61Q
B10: 52-5 (ligand)
chain: AHYNTEILKSIDNEWRKTQCMPIETLVDIFQEFGVATNTFFKPPCVSVYRCGGCCNDEGLECVPTEESNITMQIMRIKPHQGQHIGEMSFANHTSCRCMSKLD
B11: 24-1 (ligand)
chain: B6 chain with A91L, N92Q, T94N, S95K, R97E, M99R, S100P, L102K
B12: 74-7 (ligand)
chain: B6 chain with A1G, H2Q, Y3N, N4H, T5H, I7V, L8V, D57S, E61Q
B13: 54-5 (ligand)
chain: B10 chain with P44S, S47P, V48L, Y49M
B14: 23-5 (ligand)
chain: B2 chain with L91A, Q92N, N94T, K95S, E97R, R99M, P100S, K102L
B15: 24-7 (ligand)
chain: B6 chain with D57S, E61Q
B16: 22-7 (ligand)
chain: B6 chain with S44P, P47S, L48V, M49Y, D57S, E61Q
B17: 72-5 (ligand)
chain: GQNHHEVVKSIDNEWRKTQCMPREVCIDVGKEFGVATNTFFKPPCVSVYRCGGCCNDEGLECVPTEESNITMQIMRIKPHQGQHIGEMSFANHTSCRCMSKLD
B18: 22-5 (ligand)
chain: B6 chain with S44P, P47S, L48V, M49Y
B19: 74-5 (ligand)
chain: B17 chain with P44S, S47P, V48L, Y49M
B20: 54-7 (ligand)
chain: B10 chain with P44S, S47P, V48L, Y49M, D57S, E61Q
B21: 14-13 (ligand)
chain: GQNHHEVVKFMDVYQRSYCHPIETLVDIFQEFGVATNTFFKPSCVPLMRCGGCCNDEGLECVPTEESNITMQIMRITVPLSQGPKPVTISFANHTSCRCMSKLD
B22: 14-15 (ligand)
chain: B21 chain with D56S, E60Q
B23: 14-7 (ligand)
chain: GQNHHEVVKFMDVYQRSYCHPIETLVDIFQEFGVATNTFFKPSCVPLMRCGGCCNSEGLQCVPTEESNITMQIMRIKPHQGQHIGEMSFANHTSCRCMSKLD
B24: 84-7 (ligand)
chain: B23 chain with G1A, Q2H, N3Y, H4N, H5T, V7I, V8L
B25: 22-13 (ligand)
chain: AHYNTEILKSIDNEWRKTQCMPREVCIDVGKEFGVATNTFFKPPCVSVYRCGGCCNDEGLECVPTEESNITMQIMRITVPLSQGPKPVTISFANHTSCRCMSKLD
B26: 22-15 (ligand)
chain: B25 chain with D57S, E61Q
B27: 72-7 (ligand)
chain: GQNHHEVVKSIDNEWRKTQCMPREVCIDVGKEFGVATNTFFKPPCVSVYRCGGCCNSEGLQCVPTEESNITMQIMRIKPHQGQHIGEMSFANHTSCRCMSKL
B28: 72-1 (ligand)
chain: B17 chain with A91L, N92Q, T94N, S95K, R97E, M99R, S100P, L102K
B29: 72-3 (ligand)
chain: B17 chain with D57S, E61Q, A91L, N92Q, T94N, S95K, R97E, M99R, S100P, L102K

Target: T1, VEGFR-3-Fc
Assay: receptor-Fc IP
Summary of the method: (§1)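 Binding of ligand from sample supernatant measured by pentahistidine-antibody immunoprecipitation. IP mix: PBS with 1.5% BSA, 0.06% Tween 20, 3 μg/ml heparin and 400 ng/ml fusion protein, added 1:2 to sample supernatant.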

Row | binding result | Binder
1 | no binding | B1
2 | no binding | B2
3 | no binding | B3
4 | no binding | B4
5 | no binding | B5
6 | no binding | B6
7 | no binding | B7
8 | no binding | B8
9 | no binding | B9
10 | no binding | B10
11 | no binding | B11
12 | no binding | B12
13 | no binding | B13
14 | no binding | B14
15 | no binding | B15
16 | no binding | B16
17 | no binding | B17
18 | no binding | B18
19 | no binding | B19
20 | no binding | B20
21 | no binding | B21
22 | no binding | B22
23 | no binding | B23
24 | no binding | B24
25 | no binding | B25
26 | no binding | B26
27 | no binding | B27
28 | no binding | B28
29 | no binding | B29

Target: T2, VEGFR-2-Fc (UniProt P35968 20-322)
T2 construct: domain: first 3 Ig domains; conditioned supernatant of 293T cells; also called VEGFR-2-Fc fusion protein; not shown: Fc fragment of the pIg vector
Assay: receptor-Fc IP
Summary of the method: as §1

T2 sequence (P35968 20-322): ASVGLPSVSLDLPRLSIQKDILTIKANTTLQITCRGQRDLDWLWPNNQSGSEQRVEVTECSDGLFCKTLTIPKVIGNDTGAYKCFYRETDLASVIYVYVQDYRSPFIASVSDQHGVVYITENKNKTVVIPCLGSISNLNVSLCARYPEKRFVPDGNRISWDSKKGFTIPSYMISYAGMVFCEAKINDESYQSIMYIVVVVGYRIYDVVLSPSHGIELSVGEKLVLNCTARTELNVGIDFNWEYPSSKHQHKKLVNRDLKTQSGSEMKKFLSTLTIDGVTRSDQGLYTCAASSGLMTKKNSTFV

Row | binding result | Binder
30 | no binding | B1
31 | no binding | B2
32 | no binding | B3
33 | no binding | B4
34 | no binding | B5
35 | no binding | B6
36 | no binding | B7
37 | no binding | B8
38 | no binding | B9
39 | no binding | B10
40 | no binding | B11
41 | no binding | B12
42 | no binding | B13
43 | no binding | B14
44 | no binding | B15
45 | no binding | B16
46 | no binding | B17
47 | no binding | B18
48 | no binding | B19
49 | no binding | B20
50 | no binding | B21
51 | no binding | B22
52 | binds | B23
53 | no binding | B24
54 | no binding | B25
55 | no binding | B26
56 | no binding | B27
57 | no binding | B28
58 | no binding | B29

Target: T3, VEGFR-1-Fc (UniProt P17948 27-338)
T3 construct: domain: first three Ig domains; expressed in Drosophila S2 cells, purified on Protein A sepharose; also called VEGFR-1-Fc fusion protein; not shown: Fc fragment from the Signal-pIgPlus vector
Assay: receptor-Fc IP
Summary of the method: as §1

T3 sequence (P17948 27-338): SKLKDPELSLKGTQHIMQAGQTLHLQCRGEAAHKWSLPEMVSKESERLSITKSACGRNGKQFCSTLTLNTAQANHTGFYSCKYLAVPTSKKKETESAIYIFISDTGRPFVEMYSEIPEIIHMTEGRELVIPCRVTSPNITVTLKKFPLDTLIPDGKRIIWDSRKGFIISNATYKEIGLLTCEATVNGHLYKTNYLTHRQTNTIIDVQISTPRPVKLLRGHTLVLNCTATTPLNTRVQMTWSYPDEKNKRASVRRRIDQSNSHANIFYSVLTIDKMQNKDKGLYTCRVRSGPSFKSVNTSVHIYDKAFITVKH

Row | binding result | Binder
59 | no binding | B1
60 | no binding | B2
61 | no binding | B3
62 | no binding | B4
63 | no binding | B5
64 | no binding | B6
65 | no binding | B7
66 | no binding | B8
67 | no binding | B9
68 | no binding | B10
69 | no binding | B11
70 | no binding | B12
71 | no binding | B13
72 | no binding | B14
73 | no binding | B15
74 | no binding | B16
75 | no binding | B17
76 | no binding | B18
77 | no binding | B19
78 | no binding | B20
79 | no binding | B21
80 | no binding | B22
81 | no binding | B23
82 | no binding | B24
83 | no binding | B25
84 | no binding | B26
85 | no binding | B27
86 | no binding | B28
87 | no binding | B29

Reference: patent publication US20080058263A1 (published 2008)
